The values that follow come from patent US20160068834A1 (Dana-Farber, published 2016).

Assay [1] concerns the target T1, native EED in MLL-AF9 leukemia cells (UniProt Q921E6 2-441, limits assumed).
T1 construct: Endogenous intracellular protein
The assay can be described thus: anti-FITC immunoprecipitation from peptide-treated MLL-AF9 cells, EED western. The method, then:
To assess the interaction between SAH-EZH2 peptides and native EED, MLL-AF9 leukemia cells (2×10⁷) were cultured in 10 ml AF9 media using 10 cm dishes (BD Biosciences) and FITC-SAH-EZH2 peptides added to final concentration of 20 μM, followed by 8-12 h incubation. Treated cells were washed and trypsinized as above, lysed and then incubated with 50 μl of FITC-antibody (1 mg/ml) and 100 μl of protein G agarose (Roche) for 3 h. The amount of EED bound to FITC-SAH-EZH2 peptides was assessed by anti-EED western analysis (Millipore). To monitor for dissociation of native EED-EZH1/EZH2 complexes by SAH-EZH2, Sf21 cells were co-transfected with HA-EED and FLAG-EZH1 or FLAG-EZH2 baculovirus. EED-EZH1 and EED-EZH2 complexes were purified by anti-FLAG agarose (Sigma). EED-EZH1 and EED-EZH2 complexes (40 nM final concentration) were incubated with FITC-SAH-EZH2 peptides (final concentrations, 10, 3 and 1 μM) in 200 μl binding buffer for 2 h. After successive washes, the mixtures were incubated with anti-HA agarose (Sigma) and the level of HA-EED-bound EZH1 and EZH2 assessed by anti-HA western analysis.

Another assay concerns the target purified EED (Example 6) (UniProt O75530 1-441, limits assumed). The assay can be described thus: competitive fluorescence polarization: EED 200 nM, FITC-EZH2(42-68) 20 nM as competitor, 30 min. How it is done: The EED binding affinities of SAH-EZH2 and SAH-EZH2(42-68)AC were assessed by their capacities to displace FITC-labeled EZH2(42-68) peptide from EED. Serially diluted acetyl-SAH-EZH2 and the doubly stapled acetyl-SAH-EZH2(42-68)AC (dose range from 2.5 nM to 10 μIM) were incubated with purified EED (200 nM) and FITC-labeled EZH2(42-68) peptide (20 nM) for 30 min, followed by measurement of fluorescence polarization. N-terminal acetylated SAH-EZH2(42-68)AC displaced FITC-labeled EZH2(42-68) peptide from EED two times more efficiently than SAH-EZH2. The non-binding EZH2(47-64) construct was used as a negative control.
(In general: Fluorescence polarisation rises when a labelled molecule tumbles more slowly, as on binding a larger partner.)

Bridges are numbered along the chain shown (N, C = ends). Where no end group is shown, it is not given here. [ ]: non-standard residue; d: D form. The star is where a group is joined. FITC = O=C1OC2(c3ccc(O)cc3Oc3cc(O)ccc32)c2ccc(NC(=S)*)cc21; S5 = C=CCCC[C@](C)(N)C(=O)O

T1 sequence (Q921E6 2-441 limits assumed): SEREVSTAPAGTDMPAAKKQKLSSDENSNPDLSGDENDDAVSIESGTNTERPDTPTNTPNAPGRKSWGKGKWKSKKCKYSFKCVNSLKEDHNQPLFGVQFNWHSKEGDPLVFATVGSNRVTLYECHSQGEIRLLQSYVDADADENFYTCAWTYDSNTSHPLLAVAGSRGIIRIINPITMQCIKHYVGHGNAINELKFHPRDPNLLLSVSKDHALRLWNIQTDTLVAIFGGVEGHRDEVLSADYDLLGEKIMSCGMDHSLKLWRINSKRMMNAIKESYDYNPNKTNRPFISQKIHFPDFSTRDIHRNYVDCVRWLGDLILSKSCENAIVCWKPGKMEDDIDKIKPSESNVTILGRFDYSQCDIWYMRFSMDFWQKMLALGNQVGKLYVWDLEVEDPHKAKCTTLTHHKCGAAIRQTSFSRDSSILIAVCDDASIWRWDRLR
Chain of purified EED (Example 6) (O75530 whole entry): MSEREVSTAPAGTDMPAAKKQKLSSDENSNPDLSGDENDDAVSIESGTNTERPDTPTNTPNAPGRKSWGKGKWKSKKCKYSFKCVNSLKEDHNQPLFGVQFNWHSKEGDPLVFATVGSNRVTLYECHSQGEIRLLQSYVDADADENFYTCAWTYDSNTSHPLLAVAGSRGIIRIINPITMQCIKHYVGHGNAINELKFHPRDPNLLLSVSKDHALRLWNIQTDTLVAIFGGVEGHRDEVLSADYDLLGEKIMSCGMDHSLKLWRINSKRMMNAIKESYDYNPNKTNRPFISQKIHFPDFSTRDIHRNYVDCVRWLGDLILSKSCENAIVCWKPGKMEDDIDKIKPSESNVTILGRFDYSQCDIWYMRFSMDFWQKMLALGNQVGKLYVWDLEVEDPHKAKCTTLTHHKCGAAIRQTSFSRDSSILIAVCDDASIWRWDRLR

B1: FITC-SAH-EZH2A(42-68)E54Q/E59Q (peptide)
peptide: {FITC}-FSSNR[S5]KIL[S5]RTQILNQQWKQRRIQPV
modifications: staple 6-10
notes: Negative control peptide; also called SAH-EZH2MUT; SAH-EZH2(42-68)A-E54,59Q
Consider B1, for which, in assay [1], the binding result is recorded as “no binding (tested: 20 µM peptide on cells)”.

B2: acetyl-SAH-EZH2(42-68)AC (peptide)
peptide: Ac-FSSNR[S5]KIL[S5]RT[S5]ILN[S5]EWKQRRIQPV
modifications: staple 6-10, 13-17
notes: Doubly stapled peptide; also called doubly stapled SAH-EZH2 peptide
On to B2, for which the “fold displacement efficiency against SAH-EZH2” value in the assay with purified EED (Example 6) was determined as 2 fold.
